Patent publication US11447550B2, “Peptides for molecular detection of PD-L1” (THE CURATORS OF THE UNIVERSITY OF MISSOURI, priority 2016, dated 2022)
Ends that are not written are not given here.

Columns and labels:
PD-L1 [1] = target: T1, PD-L1 (Homo sapiens, UniProt Q9NZQ7); assay: Flow cytometry using cultured cell lines with Cy5-conjugated peptide; format: cell-based; design: Seven PD-L1 expressing NSCLC patient tissues were obtained from the MU OneHealth tissue bank; tissue MU OneHealth tissue bank; U.S. Biomax (TMA) LC1923; host or cells: FFPE placenta, seven NSCLC patient tissues, 192-case lung cancer tissue microarray, four Hodgkin's lymphoma cases; conditions: for MFI relative to MDA-MB-231: all lower peptide concentrations, FIG. 6A
Protocol: Cell lines MDA-MB-231, Y79, and MCF-7 were purchased from ATCC, thawed, and grown in culture to confluency. When confluent, adherent cells were removed from the flask by scraping gently with a cell scraper and media removed using centrifugation. Suspension cells were pipetted from the flask and centrifuged to remove media. Cell lines were resuspended in Eppendorf tubes in 100 μL PBS at a concentration of 5×10^6 cells per mL. Cy5-conjugated peptide solution was then added to the tubes to make the desired concentration of peptide in 200 μL. Eppendorf tubes were then placed in the incubator for 1 hour and vortexed at the 30-minute mark. After 1 hour, cell lines were analyzed on a BD FACS Canto II, a 3-laser, 8-color flow cytometer (San Jose, Calif.) using Diva 8.0 acquisition and analysis software (San Jose, Calif.). The cells of interest were gated using Forward and Side scatter (FSC/SSC) and positive antibody expression. 10,000 singlet events were collected for each specimen.
RK-10-Cy5 was then investigated for PD-L1 specificity using flow cytometry in cultured cell lines and patient tissues. […] To set our conditions for flow cytometry, titrations of PD-L1 peptide using all three cell lines were first examined. In each of the samples double-positives were selected by analyzing expression of both cytokeratin (FITC channel) and PD-L1 (Cy5 channel) (FIG. 15). […] Samples containing 0.1 and 0.05 mg/mL concentrations were deemed to have fluorescence intensities too high for accurate analysis for each cell line. Y79 and MCF7 both have a much lower PD-L1 expression than MDA-MB-231, which correlates with expression seen using Cy5 conjugated peptide and comparing the cell lines with flow cytometry. […] The MCF7 sample containing 0.005 mg/ml was much higher than anticipated due to this sample being treated twice with peptide. 0.005 mg/mL was selected as optimal concentration based on these comparisons, and all subsequent flow cytometry experiments were performed using this concentration. Lung cancer cell lines A549 (low PD-L1) and HCC827 (high PD-L1) were investigated for PD-L1 expression using both phycoerythrin-conjugated cd274 and RK-10-Cy5 (FIG. 6B). Cell lines were cultured as before and treated with either antibody or peptide in buffer. […] The antibody associated fluorescence was higher than the peptide associated fluorescence in both samples, which is attributed to differences in titrating peptide and antibody.

PD-L1 [2] = target: T1, PD-L1; assay: Flow cytometry using patient tissues and whole blood; format: cell-based; design: Seven PD-L1 expressing NSCLC patient tissues were obtained from the MU OneHealth tissue bank; tissue MU OneHealth tissue bank; U.S. Biomax (TMA) LC1923; host or cells: FFPE placenta, seven NSCLC patient tissues, 192-case lung cancer tissue microarray, four Hodgkin's lymphoma cases
Protocol: Cases were evaluated using flow cytometry for suspected hematopoietic neoplasms. A portion of each fresh specimen was collected into RPMI. […] Any erythrocytes within the specimens were lysed with BD PharmLyse (San Jose, Calif.) and the specimens were washed with BD Staining Buffer with BSA (San Jose, Calif.). Each sample was evaluated using BD FACSCanto II, a three laser, eight-color flow cytometer (San Jose, Calif.) within 24 hours of collection. 50,000 events were collected for each sample. The expression data were analyzed using BD FACSDiva software, version 8.0 (San Jose, Calif.). Cases diagnosed as non-hematopoietic tumors were further subjected to evaluation with PDL-1 peptide if material was available combined with CK to identify the epithelial component. The cell suspensions were stained with 10 μl of BD Cytokeratin FITC (clone CAM5.2), 20 μl of Cy5-conjugated peptide solution, and 10 μl of BD Pharmingen CD274 PE (clone MIH1), incubated in the dark for 30 minutes, washed with BD Stain Buffer with BSA, and reconstituted to 500 μl with Stain Buffer with BSA in […] polystyrene tubes for analysis. The specimens were analyzed on the FACS Canto II using the same panel template, gating strategy, and collection events as the cell line specimens.
PD-L1 expression in patient tissues was analyzed using RK-10-Cy5 and compared to expression in MDA-MB-231 cells and a negative control of normal blood (FIG. 7A). The MFI of the MDA-MB-231 cells was 9,448, while the whole blood gave an MFI of −123. Squamous cell carcinoma and metastatic melanoma samples were investigated for PD-L1 expression using the previously mentioned MFIs as high and negative, respectively. The squamous cell carcinoma was shown as having an MFI of 107,808, while the melanoma sample gave an MFI of 1,250. […] Since […] is consistent with circulating tumor cells, it was thought that RK-10-Cy5 peptide could be used to detect CTCs. To see whether detection of low cell counts was possible, whole blood samples were spiked with MDA-MB-231 cells. MDA-MB-231 were diluted with whole blood, then treated with RK-10-Cy5 and cytokeratin before staining. These samples were also treated with a phycoerythrin-conjugated antibody (cd274) against PD-L1 to further verify PD-L1 detection. Positive signals were detected of cytokeratin and PD-L1 expression at low counts of ˜15 cells in 1 mL whole blood sample using both the peptide and the antibody (FIG. 7B).

T1 sequence (Q9NZQ7 19-290): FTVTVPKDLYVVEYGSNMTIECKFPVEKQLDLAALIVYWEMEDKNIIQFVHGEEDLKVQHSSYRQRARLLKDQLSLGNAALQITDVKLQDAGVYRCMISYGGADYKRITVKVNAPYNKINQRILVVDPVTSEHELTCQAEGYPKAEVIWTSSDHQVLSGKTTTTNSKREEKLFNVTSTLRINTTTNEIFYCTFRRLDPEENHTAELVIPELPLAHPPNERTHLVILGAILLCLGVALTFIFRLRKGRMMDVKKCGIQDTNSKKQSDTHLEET

- MFI relative to MDA-MB-231 (PD-L1 [1]; MCF7 cells (no meaningful PD-L1 expression)): close to tenfold lower
- mean fluorescence intensity (MFI) (PD-L1 [1]; MDA-MB-231 cells (very high PD-L1), Cy5 channel, 0.005 mg/mL peptide, FIG. 7A): 9,448
- MFI relative to MDA-MB-231 (PD-L1 [1]; Y79 cells (no meaningful PD-L1 expression)): close to tenfold lower
- signal associated with PD-L1 expression, HCC827 versus A549 (PD-L1 [1]; lung cancer lines HCC827 (high PD-L1) vs A549 (low PD-L1), FIG. 6B): much higher signal
- mean fluorescence intensity (MFI) (PD-L1 [2]; metastatic melanoma patient sample): 1,250
- mean fluorescence intensity (MFI) (PD-L1 [2]; normal whole blood (negative control), FIG. 7A): −123
- mean fluorescence intensity (MFI) (PD-L1 [2]; squamous cell carcinoma patient sample): 107,808
- low cell count at which positive cytokeratin and PD-L1 signals were detected (PD-L1 [2]; whole blood spiked with MDA-MB-231 cells, FIG. 7B): ~15 cells in 1 mL whole blood
Substance: Cy5-GSGSGSTYLCGAISLAPKAQIKESL [RK-10-Cy5]
